Experimental findings from patent US20260234290, “Antibodies to Stat3 Decoy Oligonucleotide” (The Regents of the University of California, published 2026) are described below.

Usually koff stands for the first-order rate constant of dissociation.

The target in one data set is 4E4 Fab (UniProt P01764;A0A075B6I4 SEQ:1-116,SEQ:1-110). As to the kind of experiment: BLI; 2 uM Fab; RT; described as weak binding. The note with it: myc tag; Ni-NTA purified from E. coli BL21(DE3) periplasm; label: biotin; cyclic 15-mer double-stranded decoy. How it is done:
(§1) All buffers were filter sterilized with […] filters prior to preparing samples. Black 384 well microplates were used to set up BLI plates and streptavidin tips were purchased by Sartorius. Kinetic constants of Fabs were determined by Octet RED384 system with continuous shaking at 1000 rpm in RT. Prior to the experiment, biological tips (model name) were presoaked in buffer to allow for equilibration for 1 hour. Data were analyzed using 1:1 interaction model on the ForteBio data analysis software 12.0.
A general note: In BLI a coated tip is dipped into the sample, and binding shifts an interference pattern.

A further data set deals with SP1-B3 Fab (UniProt A0A0B4J1U7;A0A087WSX0 SEQ:1-120,SEQ:1-115). Kind of data set: BLI; 2 uM Fab; CS3D on streptavidin tips; RT; RAPID-sorted clone. The note with it: myc tag; Ni-NTA purified from E. coli BL21(DE3) periplasm; label: biotin; cyclic 15-mer double-stranded decoy. How it is done: as §1
Sequence of SP1-B3 Fab (A0A0B4J1U7 other isoform, or with tags, fused parts or gaps, chain 1 of 2): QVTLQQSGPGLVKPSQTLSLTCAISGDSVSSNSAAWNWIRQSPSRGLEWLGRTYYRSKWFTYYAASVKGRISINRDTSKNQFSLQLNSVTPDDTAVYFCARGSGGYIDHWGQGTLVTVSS
Sequence of SP1-B3 Fab (A0A087WSX0 other isoform, or with tags, fused parts or gaps, chain 2 of 2): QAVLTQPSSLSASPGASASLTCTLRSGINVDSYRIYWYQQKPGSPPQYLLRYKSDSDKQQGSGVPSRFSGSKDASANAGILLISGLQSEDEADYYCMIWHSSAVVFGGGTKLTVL

Sequence of 4E4 Fab (P01764 other isoform, or with tags, fused parts or gaps, chain 1 of 2): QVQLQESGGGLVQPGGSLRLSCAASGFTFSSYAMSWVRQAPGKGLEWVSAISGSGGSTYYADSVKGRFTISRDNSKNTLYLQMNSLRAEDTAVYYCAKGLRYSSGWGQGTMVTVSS
Sequence of 4E4 Fab (A0A075B6I4 other isoform, or with tags, fused parts or gaps, chain 2 of 2): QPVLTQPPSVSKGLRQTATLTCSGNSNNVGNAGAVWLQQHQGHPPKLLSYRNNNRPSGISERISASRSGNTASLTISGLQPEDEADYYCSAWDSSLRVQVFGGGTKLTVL

B1: CS3D (cyclic STAT3 decoy) (dsDNA)
DNA 1: CATTTCCCGTAAATC
DNA 2: GATTTACGGGAAATG
B1: the koff with 4E4 Fab was found to be 0.111 s⁻¹; with SP1-B3 Fab it was 0.0211 s⁻¹.
